This is an account of results in publication PMC3985065 (Protein expression and purification, 2014).

Data set [1] concerns the target T1, mouse glycine N-acyltransferase (mGLYAT) (Mus musculus, UniProt Q91XE0).
T1 sequence (Q91XE0 1-296): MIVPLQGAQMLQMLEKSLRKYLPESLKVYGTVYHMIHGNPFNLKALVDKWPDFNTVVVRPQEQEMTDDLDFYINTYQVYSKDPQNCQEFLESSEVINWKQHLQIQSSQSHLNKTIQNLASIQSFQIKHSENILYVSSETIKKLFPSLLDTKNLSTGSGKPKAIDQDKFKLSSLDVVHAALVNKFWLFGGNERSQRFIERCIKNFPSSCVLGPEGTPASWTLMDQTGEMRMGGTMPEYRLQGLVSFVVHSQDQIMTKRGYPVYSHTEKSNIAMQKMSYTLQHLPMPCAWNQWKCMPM
Briefly: DTNB assay of CoA-SH release, […] benzoyl-CoA and […] glycine. It counts as biochemical.

Substrate in data set [2]: CC(=O)SCCNC(=O)CCNC(=O)[C@H](O)C(C)(C)COP(=O)(O)OP(=O)(O)OC[C@H]1O[C@@H](n2cnc3c(N)ncnc32)[C@H](O)[C@@H]1OP(=O)(O)O
Briefly: purified protein. As to conditions: amino acceptor substrate.

Substrate in data set [3]: CCCC(=O)SCCNC(=O)CCNC(=O)[C@H](O)C(C)(C)COP(=O)(O)OP(=O)(O)OC[C@H]1O[C@@H](n2cnc3c(N)ncnc32)[C@H](O)[C@@H]1OP(=O)(O)O
Briefly: purified protein. Format: biochemical, Mus musculus. The conditions noted are these: amino acceptor substrate.

Substrate in data set [4]: NCC(=O)O
Briefly: purified protein. The conditions noted are these: benzoyl-CoA (co-substrate) amino donor substrate. It counts as biochemical, Mus musculus.

Substrate in data set [5]: COC(=O)CN
Briefly: purified protein. Format: biochemical, Mus musculus. The conditions noted are these: benzoyl-CoA (co-substrate) amino donor substrate.

Substrate in data set [6]: CCCCCC(=O)SCCNC(=O)CCNC(=O)[C@H](O)C(C)(C)COP(=O)(O)OP(=O)(O)OC[C@H]1O[C@@H](n2cnc3c(N)ncnc32)[C@H](O)[C@@H]1OP(=O)(O)O
Briefly: purified protein. It counts as biochemical, Mus musculus. As to conditions: amino acceptor substrate.

Substrate in data set [7]: CCOC(=O)CN
Briefly: purified protein. It counts as biochemical, Mus musculus. As to conditions: benzoyl-CoA (co-substrate) amino donor substrate.

Substrate in data set [8]: CC(C)(COP(=O)(O)OP(=O)(O)OC[C@H]1O[C@@H](n2cnc3c(N)ncnc32)[C@H](O)[C@@H]1OP(=O)(O)O)[C@@H](O)C(=O)NCCC(=O)NCCSC(=O)c1ccccc1
Briefly: purified protein. Format: biochemical, Mus musculus. The conditions noted are these: amino acceptor substrate.

As usually defined, the IC50 is the midpoint of a concentration-inhibition curve. Low values mean inhibition by little substance, high ones a need for much substance. Molecule `CCCCCCCC/C=C\CCCCCCCC(=O)SCCNC(=O)CCNC(=O)[C@H](O)C(C)(C)COP(=O)(O)OP(=O)(O)OC[C@H]1O[C@@H](n2cnc3c(N)ncnc32)[C@H](O)[C@@H]1OP(=O)(O)O` [Oleoyl-CoA] had a concentration for half-maximal inhibition (IC50) in data set [1] of 0.021 ± 0.0034 mM.
The molecule `O=C(O)CO` [Glycolic acid] gave an IC50 in data set [1] of 58 ± 4.9 mM.

B1: mouse glycine N-acyltransferase (mGLYAT) (Mus musculus) (protein)
chain: MIVPLQGAQMLQMLEKSLRKYLPESLKVYGTVYHMIHGNPFNLKALVDKWPDFNTVVVRPQEQEMTDDLDFYINTYQVYSKDPQNCQEFLESSEVINWKQHLQIQSSQSHLNKTIQNLASIQSFQIKHSENILYVSSETIKKLFPSLLDTKNLSTGSGKPKAIDQDKFKLSSLDVVHAALVNKFWLFGGNERSQRFIERCIKNFPSSCVLGPEGTPASWTLMDQTGEMRMGGTMPEYRLQGLVSFVVHSQDQIMTKRGYPVYSHTEKSNIAMQKMSYTLQHLPMPCAWNQWKCMPM
As a reminder, the Km is the substrate concentration at which the rate is half of its maximum. What is called kcat is the number of substrate molecules converted per active site and unit of time at saturation. In general, kcat/Km refers to the second-order rate constant that governs catalysis at low substrate concentration. B1: the Km in data set [2] came out at 209 ± 43 µM; in data set [3], 52 ± 7.9 µM; in data set [4] it was 6100 ± 1200 µM; in data set [5], 29000 ± 9100 µM; in data set [6], 45 ± 3.0 µM; in data set [7], 9700 ± 1700 µM. The Michaelis constant (Km) in data set [8] was determined as 9.4 ± 14 µM. Moreover, the turnover number (kcat) was 0.8 s⁻¹ in data set [2]; 15 ± 0.43 s⁻¹ in data set [3]; 3.2 ± 0.12 s⁻¹ in data set [4]; 1 ± 0.12 s⁻¹ in data set [5]; 4.6 ± 0.085 s⁻¹ in data set [6]; 0.57 ± 0.023 s⁻¹ in data set [7]. For the same molecule, in data set [8], the catalytic constant (kcat) turned out to be 4.2 ± 0.25 s⁻¹. The kcat/Km in data set [2] worked out at 3800 M⁻¹ s⁻¹; in data set [3], 290000 ± 8200 M⁻¹ s⁻¹; in data set [4], 520 ± 20 M⁻¹ s⁻¹; in data set [5] it was 35 ± 4.1 M⁻¹ s⁻¹; in data set [6], 100000 ± 1900 M⁻¹ s⁻¹; in data set [7], 59 ± 2.3 M⁻¹ s⁻¹. The kcat/Km in data set [8] came out at 450000 ± 27000 M⁻¹ s⁻¹.
